# Assay results reported in FireProtDB (doi:10.1021/bi060848l).
# B1: Camphor 5-monooxygenase, P00183 (parent)
# chain: MTTETIQSNANLAPLPPHVPEHLVFDFDMYNPSNLSAGVQEAWAVLQESNVPDLVWTRCNGGHWIATRGQLIREAYEDYRHFSSECPFIPREAGEAYDFIPTSMDPPEQRQFRALANQVVGMPVVDKLENRIQELACSLIESLRPQGQCNFTEDYAEPFPIRIFMLLAGLPEEDIPHLKYLTDQMTRPDGSMTFAEAKEALYDYLIPIIEQRRQKPGTDAISIVANGQVNGRPITSDEAKRMCGLLLVGGLDTVVNFLSFSMEFLAKSPEHRQELIERPERIPAACEELLRRFSLVADGRILTSDYEFHGVQLKKGDQILLPQMLSGLDERENACPMHVDFSRQKVSHTTFGHGSHLCLGQHLARREIIVTLKEWLTRIPDFSIAPGAQIQHKSGIVSGVQALPLVWDPATTKAV
# Variants of: B1
# Conditions: Pseudomonas putida; pH 7.4; Thermal; DSC; Tris 50 mM; KCl 100 mM; reversible: Yes; structure 2CPP; whole UniProt chain shown
Variant,Tm,"change of melting temperature, mutant - wild type (higher = more stable)"
T102V,63.5 °C,-1.8 °C
